Data on one molecule can be found in US20240247069A1 (Regeneron, published 2024).

The target in test [1] is T1, human FGFR3b-ecto.mmH (human, UniProt P22607 23-806).
T1 construct: also called hFGFR3b (mmh); hFGFR3b-mmh; not shown: mmh tag
The experiment in a line: Biacore SPR, 25 C, mmh-tagged FGFR3.

Test [2] concerns the target T2, mouse FGFR3b-ecto.mmH (mouse, UniProt Q61851 21-801).
T2 construct: also called moFGFR3b (mmh); monomeric mouse FGFR3b; not shown: mmh tag
The experiment in a line: Biacore SPR, 25 C, mmh-tagged FGFR3.

T1 sequence (P22607 other isoform, or with tags, fused parts or gaps): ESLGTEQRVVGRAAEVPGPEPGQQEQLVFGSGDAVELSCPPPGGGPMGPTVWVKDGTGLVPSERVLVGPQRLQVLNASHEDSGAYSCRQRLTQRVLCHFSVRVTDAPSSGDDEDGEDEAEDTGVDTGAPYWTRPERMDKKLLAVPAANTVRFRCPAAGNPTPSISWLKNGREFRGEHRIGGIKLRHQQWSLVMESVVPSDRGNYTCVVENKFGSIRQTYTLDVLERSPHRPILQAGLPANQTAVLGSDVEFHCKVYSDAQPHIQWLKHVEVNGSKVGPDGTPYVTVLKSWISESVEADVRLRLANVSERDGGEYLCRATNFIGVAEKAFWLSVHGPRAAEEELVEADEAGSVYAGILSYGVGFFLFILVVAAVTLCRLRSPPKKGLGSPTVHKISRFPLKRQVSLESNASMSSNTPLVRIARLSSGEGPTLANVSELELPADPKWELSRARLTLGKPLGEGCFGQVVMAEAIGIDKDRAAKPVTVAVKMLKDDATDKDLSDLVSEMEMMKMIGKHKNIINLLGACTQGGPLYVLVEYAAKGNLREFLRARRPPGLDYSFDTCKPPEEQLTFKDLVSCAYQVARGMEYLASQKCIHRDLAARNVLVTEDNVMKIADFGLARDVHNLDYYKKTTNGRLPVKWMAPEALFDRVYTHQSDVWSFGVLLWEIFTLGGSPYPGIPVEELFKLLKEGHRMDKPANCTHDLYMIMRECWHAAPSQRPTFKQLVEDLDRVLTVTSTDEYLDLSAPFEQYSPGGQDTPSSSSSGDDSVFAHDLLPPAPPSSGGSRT
T2 sequence (Q61851 other isoform, or with tags, fused parts or gaps): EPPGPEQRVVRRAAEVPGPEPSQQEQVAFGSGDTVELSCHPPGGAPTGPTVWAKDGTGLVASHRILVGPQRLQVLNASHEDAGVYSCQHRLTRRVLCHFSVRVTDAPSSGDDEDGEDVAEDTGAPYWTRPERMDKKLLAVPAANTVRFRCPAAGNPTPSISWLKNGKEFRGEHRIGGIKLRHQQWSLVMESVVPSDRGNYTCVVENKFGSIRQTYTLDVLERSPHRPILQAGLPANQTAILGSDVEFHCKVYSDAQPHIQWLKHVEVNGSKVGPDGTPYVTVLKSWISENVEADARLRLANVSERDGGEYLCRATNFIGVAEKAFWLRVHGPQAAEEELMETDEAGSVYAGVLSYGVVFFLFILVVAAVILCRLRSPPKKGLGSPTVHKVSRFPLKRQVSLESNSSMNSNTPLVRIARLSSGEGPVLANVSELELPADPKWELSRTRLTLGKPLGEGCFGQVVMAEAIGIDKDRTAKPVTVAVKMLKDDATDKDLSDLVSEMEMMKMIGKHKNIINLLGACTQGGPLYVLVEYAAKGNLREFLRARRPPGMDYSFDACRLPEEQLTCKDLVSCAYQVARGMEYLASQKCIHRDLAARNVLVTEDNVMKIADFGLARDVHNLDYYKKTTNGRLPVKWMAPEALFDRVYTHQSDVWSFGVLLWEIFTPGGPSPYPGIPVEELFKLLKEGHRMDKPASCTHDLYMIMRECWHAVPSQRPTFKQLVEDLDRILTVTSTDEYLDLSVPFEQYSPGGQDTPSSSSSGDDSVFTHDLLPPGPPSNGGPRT

B1: H4H30063P (antibody, V domains shown)
VH: QVQLQESGPGLVKPSETLSLTCTVSGDSINSYFWSWIRQLPGKELEWIGHIYSSGSTRYNPSLQSRVTISIDTSKNQFSLKLSSVTAADTAVYYCARGASAVDYWGQGTLVTVSS
VL: EIVLTQSPGTLSLSPGERATLSCRTSQSISSGYLAWYQQKPGQAPRLLIYGASRRATGIPDRFSGSGSGTDFTLTISRLEPEDFVVYYCQQYGSSPYTFGQGTKLEIKR
For the molecule B1, the values for the Kd in test [1] and in test [2] were 1.8 nM and 1.27 nM, respectively.

Usually Kd stands for the constant that tells how readily two partners part at equilibrium. High values mean weaker binding, low ones tighter binding.
